B1: huAb13v1-CZ (antibody, human IgG1, kappa, L234A L235A, V domains shown)
VH: EVQLQESGPGLVKPSETLSLTCAVTGYSITSGYSWHWIRQFPGNGLEWMGYIHSSGSTNYNPSLKSRISISRDTSKNQFFLKLSSVTAADTAVYYCAGYDDYFEYWGQGTTVTVSS
VL: DIQMTQSPSSLSASVGDRVTITCKASQNVGFNVAWYQQKPGKSPKALIYSASYRYSGVPSRFSGSGSGTDFTLTISSLQPEDFAEYFCQQYNWYPFTFGQGTKLEIKR
modifications: synthon CZ on interchain Cys
B2: huAb13v1-TX (antibody, human IgG1, kappa, L234A L235A, V domains shown)
VH: EVQLQESGPGLVKPSETLSLTCAVTGYSITSGYSWHWIRQFPGNGLEWMGYIHSSGSTNYNPSLKSRISISRDTSKNQFFLKLSSVTAADTAVYYCAGYDDYFEYWGQGTTVTVSS
VL: DIQMTQSPSSLSASVGDRVTITCKASQNVGFNVAWYQQKPGKSPKALIYSASYRYSGVPSRFSGSGSGTDFTLTISSLQPEDFAEYFCQQYNWYPFTFGQGTKLEIKR
modifications: synthon TX on interchain Cys
B3: huAb13v1-SR (antibody, human IgG1, kappa, L234A L235A, V domains shown)
VH: EVQLQESGPGLVKPSETLSLTCAVTGYSITSGYSWHWIRQFPGNGLEWMGYIHSSGSTNYNPSLKSRISISRDTSKNQFFLKLSSVTAADTAVYYCAGYDDYFEYWGQGTTVTVSS
VL: DIQMTQSPSSLSASVGDRVTITCKASQNVGFNVAWYQQKPGKSPKALIYSASYRYSGVPSRFSGSGSGTDFTLTISSLQPEDFAEYFCQQYNWYPFTFGQGTKLEIKR
modifications: synthon SR on interchain Cys
B4: huAb13v1-SE (antibody, human IgG1, kappa, L234A L235A, V domains shown)
VH: EVQLQESGPGLVKPSETLSLTCAVTGYSITSGYSWHWIRQFPGNGLEWMGYIHSSGSTNYNPSLKSRISISRDTSKNQFFLKLSSVTAADTAVYYCAGYDDYFEYWGQGTTVTVSS
VL: DIQMTQSPSSLSASVGDRVTITCKASQNVGFNVAWYQQKPGKSPKALIYSASYRYSGVPSRFSGSGSGTDFTLTISSLQPEDFAEYFCQQYNWYPFTFGQGTKLEIKR
modifications: synthon SE on interchain Cys
B5: huAb13v1-XW (antibody, human IgG1, kappa, L234A L235A, V domains shown)
VH: EVQLQESGPGLVKPSETLSLTCAVTGYSITSGYSWHWIRQFPGNGLEWMGYIHSSGSTNYNPSLKSRISISRDTSKNQFFLKLSSVTAADTAVYYCAGYDDYFEYWGQGTTVTVSS
VL: DIQMTQSPSSLSASVGDRVTITCKASQNVGFNVAWYQQKPGKSPKALIYSASYRYSGVPSRFSGSGSGTDFTLTISSLQPEDFAEYFCQQYNWYPFTFGQGTKLEIKR
modifications: synthon XW on interchain Cys
B6: huAb13v1-YG (antibody, human IgG1, kappa, L234A L235A, V domains shown)
VH: EVQLQESGPGLVKPSETLSLTCAVTGYSITSGYSWHWIRQFPGNGLEWMGYIHSSGSTNYNPSLKSRISISRDTSKNQFFLKLSSVTAADTAVYYCAGYDDYFEYWGQGTTVTVSS
VL: DIQMTQSPSSLSASVGDRVTITCKASQNVGFNVAWYQQKPGKSPKALIYSASYRYSGVPSRFSGSGSGTDFTLTISSLQPEDFAEYFCQQYNWYPFTFGQGTKLEIKR
modifications: synthon YG on interchain Cys
B7: huAb13v1-KZ (antibody, human IgG1, kappa, L234A L235A, V domains shown)
VH: EVQLQESGPGLVKPSETLSLTCAVTGYSITSGYSWHWIRQFPGNGLEWMGYIHSSGSTNYNPSLKSRISISRDTSKNQFFLKLSSVTAADTAVYYCAGYDDYFEYWGQGTTVTVSS
VL: DIQMTQSPSSLSASVGDRVTITCKASQNVGFNVAWYQQKPGKSPKALIYSASYRYSGVPSRFSGSGSGTDFTLTISSLQPEDFAEYFCQQYNWYPFTFGQGTKLEIKR
modifications: synthon KZ on interchain Cys
B8: huAb3v2.5-CZ (antibody, human IgG1, kappa, L234A L235A, V domains shown)
VH: EVQLVQSGAEVKKPGSSVKVSCKASGYTFSSYWMHWVRQAPGQGLEWIGLIHPESGSTNYNEMFKNRATLTVDRSTSTAYMELSSLRSEDTAVYYCAGGGRLYFDYWGQGTTVTVSS
VL: DIVMTQSPLSLPVTPGEPASISCRSSQSLVHSNRDTYLRWYLQKPGQSPQLLIYKVSNRFSGVPDRFSGSGSGTDFTLKISRVEAEDVGVYYCSQSTHVPYTFGGGTKVEIKR
modifications: synthon CZ on interchain Cys
B9: huAb3v2.5-AAD (antibody, human IgG1, kappa, L234A L235A, V domains shown)
VH: EVQLVQSGAEVKKPGSSVKVSCKASGYTFSSYWMHWVRQAPGQGLEWIGLIHPESGSTNYNEMFKNRATLTVDRSTSTAYMELSSLRSEDTAVYYCAGGGRLYFDYWGQGTTVTVSS
VL: DIVMTQSPLSLPVTPGEPASISCRSSQSLVHSNRDTYLRWYLQKPGQSPQLLIYKVSNRFSGVPDRFSGSGSGTDFTLKISRVEAEDVGVYYCSQSTHVPYTFGGGTKVEIKR
modifications: synthon AAD on interchain Cys
B10: huAb3v2.5-YY (antibody, human IgG1, kappa, L234A L235A, V domains shown)
VH: EVQLVQSGAEVKKPGSSVKVSCKASGYTFSSYWMHWVRQAPGQGLEWIGLIHPESGSTNYNEMFKNRATLTVDRSTSTAYMELSSLRSEDTAVYYCAGGGRLYFDYWGQGTTVTVSS
VL: DIVMTQSPLSLPVTPGEPASISCRSSQSLVHSNRDTYLRWYLQKPGQSPQLLIYKVSNRFSGVPDRFSGSGSGTDFTLKISRVEAEDVGVYYCSQSTHVPYTFGGGTKVEIKR
modifications: synthon YY on interchain Cys
B11: huAb3v2.5-ZT (antibody, human IgG1, kappa, L234A L235A, V domains shown)
VH: EVQLVQSGAEVKKPGSSVKVSCKASGYTFSSYWMHWVRQAPGQGLEWIGLIHPESGSTNYNEMFKNRATLTVDRSTSTAYMELSSLRSEDTAVYYCAGGGRLYFDYWGQGTTVTVSS
VL: DIVMTQSPLSLPVTPGEPASISCRSSQSLVHSNRDTYLRWYLQKPGQSPQLLIYKVSNRFSGVPDRFSGSGSGTDFTLKISRVEAEDVGVYYCSQSTHVPYTFGGGTKVEIKR
modifications: synthon ZT on interchain Cys
B12: huAb3v2.5-AAA (antibody, human IgG1, kappa, L234A L235A, V domains shown)
VH: EVQLVQSGAEVKKPGSSVKVSCKASGYTFSSYWMHWVRQAPGQGLEWIGLIHPESGSTNYNEMFKNRATLTVDRSTSTAYMELSSLRSEDTAVYYCAGGGRLYFDYWGQGTTVTVSS
VL: DIVMTQSPLSLPVTPGEPASISCRSSQSLVHSNRDTYLRWYLQKPGQSPQLLIYKVSNRFSGVPDRFSGSGSGTDFTLKISRVEAEDVGVYYCSQSTHVPYTFGGGTKVEIKR
modifications: synthon AAA on interchain Cys
B13: huAb3v2.5-XW (antibody, human IgG1, kappa, L234A L235A, V domains shown)
VH: EVQLVQSGAEVKKPGSSVKVSCKASGYTFSSYWMHWVRQAPGQGLEWIGLIHPESGSTNYNEMFKNRATLTVDRSTSTAYMELSSLRSEDTAVYYCAGGGRLYFDYWGQGTTVTVSS
VL: DIVMTQSPLSLPVTPGEPASISCRSSQSLVHSNRDTYLRWYLQKPGQSPQLLIYKVSNRFSGVPDRFSGSGSGTDFTLKISRVEAEDVGVYYCSQSTHVPYTFGGGTKVEIKR
modifications: synthon XW on interchain Cys
B14: huAb3v2.5-LB (antibody, human IgG1, kappa, L234A L235A, V domains shown)
VH: EVQLVQSGAEVKKPGSSVKVSCKASGYTFSSYWMHWVRQAPGQGLEWIGLIHPESGSTNYNEMFKNRATLTVDRSTSTAYMELSSLRSEDTAVYYCAGGGRLYFDYWGQGTTVTVSS
VL: DIVMTQSPLSLPVTPGEPASISCRSSQSLVHSNRDTYLRWYLQKPGQSPQLLIYKVSNRFSGVPDRFSGSGSGTDFTLKISRVEAEDVGVYYCSQSTHVPYTFGGGTKVEIKR
modifications: synthon LB on interchain Cys
B15: huAb3v2.5-TX (antibody, human IgG1, kappa, L234A L235A, V domains shown)
VH: EVQLVQSGAEVKKPGSSVKVSCKASGYTFSSYWMHWVRQAPGQGLEWIGLIHPESGSTNYNEMFKNRATLTVDRSTSTAYMELSSLRSEDTAVYYCAGGGRLYFDYWGQGTTVTVSS
VL: DIVMTQSPLSLPVTPGEPASISCRSSQSLVHSNRDTYLRWYLQKPGQSPQLLIYKVSNRFSGVPDRFSGSGSGTDFTLKISRVEAEDVGVYYCSQSTHVPYTFGGGTKVEIKR
modifications: synthon TX on interchain Cys
B16: huAb3v2.5-SE (antibody, human IgG1, kappa, L234A L235A, V domains shown)
VH: EVQLVQSGAEVKKPGSSVKVSCKASGYTFSSYWMHWVRQAPGQGLEWIGLIHPESGSTNYNEMFKNRATLTVDRSTSTAYMELSSLRSEDTAVYYCAGGGRLYFDYWGQGTTVTVSS
VL: DIVMTQSPLSLPVTPGEPASISCRSSQSLVHSNRDTYLRWYLQKPGQSPQLLIYKVSNRFSGVPDRFSGSGSGTDFTLKISRVEAEDVGVYYCSQSTHVPYTFGGGTKVEIKR
modifications: synthon SE on interchain Cys
B17: huAb3v2.5-WD (antibody, human IgG1, kappa, L234A L235A, V domains shown)
VH: EVQLVQSGAEVKKPGSSVKVSCKASGYTFSSYWMHWVRQAPGQGLEWIGLIHPESGSTNYNEMFKNRATLTVDRSTSTAYMELSSLRSEDTAVYYCAGGGRLYFDYWGQGTTVTVSS
VL: DIVMTQSPLSLPVTPGEPASISCRSSQSLVHSNRDTYLRWYLQKPGQSPQLLIYKVSNRFSGVPDRFSGSGSGTDFTLKISRVEAEDVGVYYCSQSTHVPYTFGGGTKVEIKR
modifications: synthon WD on interchain Cys
B18: huAb3v2.5-SR (antibody, human IgG1, kappa, L234A L235A, V domains shown)
VH: EVQLVQSGAEVKKPGSSVKVSCKASGYTFSSYWMHWVRQAPGQGLEWIGLIHPESGSTNYNEMFKNRATLTVDRSTSTAYMELSSLRSEDTAVYYCAGGGRLYFDYWGQGTTVTVSS
VL: DIVMTQSPLSLPVTPGEPASISCRSSQSLVHSNRDTYLRWYLQKPGQSPQLLIYKVSNRFSGVPDRFSGSGSGTDFTLKISRVEAEDVGVYYCSQSTHVPYTFGGGTKVEIKR
modifications: synthon SR on interchain Cys
B19: huAb3v2.5-ZZ (antibody, human IgG1, kappa, L234A L235A, V domains shown)
VH: EVQLVQSGAEVKKPGSSVKVSCKASGYTFSSYWMHWVRQAPGQGLEWIGLIHPESGSTNYNEMFKNRATLTVDRSTSTAYMELSSLRSEDTAVYYCAGGGRLYFDYWGQGTTVTVSS
VL: DIVMTQSPLSLPVTPGEPASISCRSSQSLVHSNRDTYLRWYLQKPGQSPQLLIYKVSNRFSGVPDRFSGSGSGTDFTLKISRVEAEDVGVYYCSQSTHVPYTFGGGTKVEIKR
modifications: synthon ZZ on interchain Cys
B20: huAb3v2.5-TV (antibody, human IgG1, kappa, L234A L235A, V domains shown)
VH: EVQLVQSGAEVKKPGSSVKVSCKASGYTFSSYWMHWVRQAPGQGLEWIGLIHPESGSTNYNEMFKNRATLTVDRSTSTAYMELSSLRSEDTAVYYCAGGGRLYFDYWGQGTTVTVSS
VL: DIVMTQSPLSLPVTPGEPASISCRSSQSLVHSNRDTYLRWYLQKPGQSPQLLIYKVSNRFSGVPDRFSGSGSGTDFTLKISRVEAEDVGVYYCSQSTHVPYTFGGGTKVEIKR
modifications: synthon TV on interchain Cys

Each binder was assayed against T1, Human full length B7-H3 (human, UniProt Q5ZPR3 29-534) (assay: cell-based or functional assay).
T1 sequence: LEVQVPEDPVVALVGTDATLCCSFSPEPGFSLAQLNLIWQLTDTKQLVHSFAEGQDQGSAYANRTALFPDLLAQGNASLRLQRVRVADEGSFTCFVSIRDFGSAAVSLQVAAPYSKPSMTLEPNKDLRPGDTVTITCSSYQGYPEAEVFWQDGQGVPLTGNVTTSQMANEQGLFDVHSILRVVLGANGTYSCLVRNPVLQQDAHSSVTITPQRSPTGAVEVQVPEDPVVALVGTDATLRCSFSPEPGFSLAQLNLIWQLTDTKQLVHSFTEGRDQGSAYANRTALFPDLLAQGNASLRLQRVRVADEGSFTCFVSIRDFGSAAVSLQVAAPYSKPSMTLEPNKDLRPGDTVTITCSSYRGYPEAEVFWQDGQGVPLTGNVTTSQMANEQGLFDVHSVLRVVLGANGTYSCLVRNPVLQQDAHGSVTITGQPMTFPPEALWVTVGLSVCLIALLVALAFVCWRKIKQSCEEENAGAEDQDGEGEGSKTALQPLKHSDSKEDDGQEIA
B1 was tested, and the “EC50 nM H1650 (in vitro tumor cell cytotoxicity)” value (from here on “EC50 nM H1650”) was 0.18 nM. B2 was tested, and the “EC50 nM H1650” value was 0.22 nM. For B3, the “EC50 nM H1650” value was 0.59 nM. For B4, the “EC50 nM H1650” value was 0.63 nM. With B5 the “EC50 nM H1650” value was 0.86 nM. B6 was tested, and the “EC50 nM H1650” value was 0.33 nM. In the case of B7, the “EC50 nM H1650” value is reported as 179 nM. With B8 the “EC50 nM H1650” value was 0.4 nM. B9 was tested, and the “EC50 nM H1650” value was 0.49 nM. In the case of B10, the “EC50 nM H1650” value is reported as 0.71 nM. B11 was tested, and the “EC50 nM H1650” value was 0.95 nM. For B12, the “EC50 nM H1650” value was 0.85 nM. For B13, the “EC50 nM H1650” value was 2.18 nM. B14 was tested, and the “EC50 nM H1650” value was 2.59 nM. In the case of B15, the “EC50 nM H1650” value is reported as 0.62 nM. For B16, the “EC50 nM H1650” value was 0.85 nM. With B17 the “EC50 nM H1650” value was 0.83 nM. B18 was tested, and the “EC50 nM H1650” value was 0.59 nM. B19 was tested, and the “EC50 nM H1650” value was 1.1 nM. In the case of B20, the “EC50 nM H1650” value is reported as 0.53 nM.

Reference: patent publication US20200002421A1 (AbbVie / Abbott, published 2020)
